The values below come from article doi:10.1101/2020.02.29.971473.

By Kd is commonly meant the equilibrium constant for the complex coming apart. A low value points to tighter binding.

The assay has as its target human PCNA, purified (immobilised on the GLC chip) (human), P12004. Description: SPR. The conditions noted are these: remark: other sources report otherwise.

Sequence of human PCNA, purified (immobilised on the GLC chip) (human), P12004 (P12004 whole entry): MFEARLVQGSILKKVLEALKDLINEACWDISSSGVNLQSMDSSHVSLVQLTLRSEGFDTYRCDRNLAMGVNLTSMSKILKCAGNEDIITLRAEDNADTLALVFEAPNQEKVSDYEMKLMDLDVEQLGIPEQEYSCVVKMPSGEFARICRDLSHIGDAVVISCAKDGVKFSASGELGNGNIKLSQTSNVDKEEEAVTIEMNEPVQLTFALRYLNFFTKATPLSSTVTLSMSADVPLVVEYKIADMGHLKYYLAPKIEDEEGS

B1: p125 (PolD1), catalytic subunit of human DNA polymerase delta, purified, P28340 1-1107 (natural protein)
chain: MDGKRRPGPGPGVPPKRARGGLWDDDDAPRPSQFEEDLALMEEMEAEHRLQEQEEEELQSVLEGVADGQVPPSAIDPRWLRPTPPALDPQTEPLIFQQLEIDHYVGPAQPVPGGPPPSRGSVPVLRAFGVTDEGFSVCCHIHGFAPYFYTPAPPGFGPEHMGDLQRELNLAISRDSRGGRELTGPAVLAVELCSRESMFGYHGHGPSPFLRITVALPRLVAPARRLLEQGIRVAGLGTPSFAPYEANVDFEIRFMVDTDIVGCNWLELPAGKYALRLKEKATQCQLEADVLWSDVVSHPPEGPWQRIAPLRVLSFDIECAGRKGIFPEPERDPVIQICSLGLRWGEPEPFLRLALTLRPCAPILGAKVQSYEKEEDLLQAWSTFIRIMDPDVITGYNIQNFDLPYLISRAQTLKVQTFPFLGRVAGLCSNIRDSSFQSKQTGRRDTKVVSMVGRVQMDMLQVLLREYKLRSYTLNAVSFHFLGEQKEDVQHSIITDLQNGNDQTRRRLAVYCLKDAYLPLRLLERLMVLVNAVEMARVTGVPLSYLLSRGQQVKVVSQLLRQAMHEGLLMPVVKSEGGEDYTGATVIEPLKGYYDVPIATLDFSSLYPSIMMAHNLCYTTLLRPGTAQKLGLTEDQFIRTPTGDEFVKTSVRKGLLPQILENLLSARKRAKAELAKETDPLRRQVLDGRQLALKVSANSVYGFTGAQVGKLPCLEISQSVTGFGRQMIEKTKQLVESKYTVENGYSTSAKVVYGDTDSVMCRFGVSSVAEAMALGREAADWVSGHFPSPIRLEFEKVYFPYLLISKKRYAGLLFSSRPDAHDRMDCKGLEAVRRDNCPLVANLVTASLRRLLIDRDPEGAVAHAQDVISDLLCNRIDISQLVITKELTRAASDYAGKQAHVELAERMRKRDPGSAPSLGDRVPYVIISAAKGVAAYMKSEDPLFVLEHSLPIDTQYYLEQQLAKPLLRIFEPILGEGRAEAVLLRGDHTRCKTVLTGKVGGLLAFAKRRNCCIGCRTVLSHQGAVCEFCQPRESELYQKEVSHLNALEERFSRLWTQCQRCQGSLHEDVICTSRDCPIFYMRKKVRKDLEDQEQLLRRFGPPGPEAW
Consider B1, for which the Kd worked out at 100 nM and the response units stood at 90 RU.
